Laboratory results: the supplement of paper PMC12042874
± gives the uncertainty stated by the source.

Assay: amyloid nucleation score (Sup35N fusion, yeast selection) (log enrichment); library NNK2; higher = more nucleation; inactive = no reads after selection
Summary of the method: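 Using DiMSum, nucleation scores were taken as the log enrichment of output over input reads, centred on the mode score of non-aggregating sequences. The input and output reads came from Illumina sequencing of plasmid inserts, with sequences under 100 input reads excluded. The yeast were psi-negative, expressed Sup35N fused to peptides of 20 random codons, were induced with 100 μM copper sulfate for 24 hours, and were grown 7 days at 30°C on medium lacking adenine and uracil.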

Substance | amyloid nucleation score
TSIMPDSFFRSLKVSF | -0.249 ± 0.56
TSRKTEFQPFAGSICLYMGI | 0.18 ± 0.63
TSRML | 0.67 ± 0.39
TSRRL | 2.1 ± 0.13
TTDCSNDLSAILVCLSHGAL | -0.19 ± 1
TTLRCHLIESKWGYVRRLTW | 4.33 ± 0.088
TTMIAVVRFTRD | 2.07 ± 0.29
TTNSFINLVYMNMHK | 6.63 ± 0.075
TTRAKHVHWYELHNVFMLQL | 7.483 ± 0.054
TTSLSYFLIQKALLWKVEYH | -1.38 ± 0.38
TTTCLMLLRVNFNTALLIRN | -1.41 ± 0.49
TTYSRS | -1.26 ± 0.62
TVCFDSLNHITSFIRGRFSL | inactive
TVFKYLTFLGSIVFSTVPLV | 0.088 ± 0.56
TVFLTGRFCWVFPRSCYLSY | -0.758 ± 0.33
TVFSK | -0.998 ± 0.76
TVHRLRNVCLL | 2.51 ± 0.25
TVLGRGLILWDVGGLSE | -0.906 ± 0.34
TVMGPVILTCVGIAVTSASS | 3.86 ± 0.1
TVMNVDWFKDYLLTNFVCSD | 0.063 ± 0.36
TVNCSTCM | -0.562 ± 0.19
TVSGDTSRRSRMNFSFYMQR | -0.266 ± 1.1
TVSKDDMTALVSAIMASNRW | 1.06 ± 0.32
TVSLYIDYPSVLGFPWSY | -0.952 ± 0.55
TVSRTVCVASYCLSSEKTSG | -0.899 ± 0.31

Substance | amyloid nucleation score
TVSVNLYNFVLQTSY | 4.55 ± 0.069
TVVFYNNIIFGFDFSSAKWL | 6.21 ± 0.067
TVWRARLGSPCGFLCVDRSW | 0.414 ± 0.53
TVWYCALSL | 10.61 ± 0.07
TWGPWTLMSVLSCGVYGSHG | 4.3 ± 0.084
TWGQVII | -0.465 ± 1
TWGVLFAYSIEDCVGINYLG | 0.73 ± 0.18
TWKVDF | inactive
TWMGVHVRSYHQHC | 0.878 ± 0.42
TWVGWS | -0.841 ± 0.79
TYCKFVNFYESVKER | 6.753 ± 0.037
TYDWEFFNDYYQM | 0.161 ± 0.77
TYFVVGDSLSVIFSGRNWGV | 5.408 ± 0.043
TYGHDKLRVSNIEHQLPGRA | 0.306 ± 0.64
TYGLVTRTGAV | 0.247 ± 0.43
TYICT | -0.59 ± 0.24
TYLKHVRKS | 1.11 ± 0.24
TYSGEIKL | inactive
TYVHDPGFPLWLDMAKRFGL | 0.581 ± 0.5
TYVHNKVCKNACNFSTLGPC | 0.143 ± 0.8
TYVLSGEGEIKA | 1.54 ± 0.33
TYVYNGAYVVGNWL | -0.964 ± 0.54
VAFNGYLY | -0.89 ± 0.48
VAGDLGGRSELLARIRSGHA | inactive
VANEDDRYYTYGADWERLLL | 0.844 ± 0.56

Substance | amyloid nucleation score
VARVWEWFCVCWTWDSELVG | 3.69 ± 0.057
VATWGDQVLRMRWAALRLCV | 5.96 ± 0.079
VAVISDWGWQNWMSVVGVGH | inactive
VAWITLMIPHIYFQSGILWD | -1 ± 0.25
VAYLTFLWNQYAVRARKRLP | -0.085 ± 0.35
VCCAFLCASRAVVYTGKDMH | 10.18 ± 0.027
VCCRDKMSHCRSAALNMVLL | 3.49 ± 0.12
VCDVDTNVVTSNWTSCLFRK | inactive
VCFGEQT | 0 ± 0.21
VCFRYGEYLNVKIF | -0.789 ± 0.63
VCFVM | -0.016 ± 0.79
VCRDYGVMSMRRDWLCRMSL | 0.391 ± 0.65
VCRNDRLVWCKLGVEFSGVA | 1.31 ± 0.26
VCSMEGYEAVYSRRRELLWS | 0.08 ± 0.36
VCVFTDLGCRY | -0.493 ± 1.1
VCVQDRLRC | 0.518 ± 0.5
VCYNT | 0.833 ± 0.74
VDCGFRRLFVFTNSIYCVCR | 5.321 ± 0.053
VDDWSADIMKGDRVLYS | inactive
VDFFCQPGTCVQEVEDLLVL | -0.166 ± 0.35
VDFTCLYSVNFRIHVYISDM | 2.71 ± 0.2
VDISNFTVCRHAIKDLTFRV | 0.149 ± 0.41
VDREKKEKTLVDGTQMVTCL | 1.12 ± 0.32
VDTELKVNSYRPGWTEHSRT | 0.738 ± 0.21
VDVHIIIMKPDSWVCPNRCS | inactive

Substance | amyloid nucleation score
VEADVYDRDVTSWRMLYLYK | 0.174 ± 0.4
VEALSISMQLYYRSLVAG | -0.066 ± 1
VEGLNCVLSDNKVANGS | -0.791 ± 0.44
VEGLQ | inactive
VESLFGYW | -0.889 ± 1.1
VESMILSRYLHHILRGNSLC | -1.15 ± 1.1
VFACLNVLSLMNEDFFVMSD | -0.708 ± 0.54
VFDEVVVDTLKWWSCVSAGI | -0.484 ± 0.54
VFFGLWRIVRGETSHFYRDE | -0.835 ± 0.27
VFFNLDSWSSKVCDSKLMVM | -0.373 ± 0.54
VFIMGPTS | 3.96 ± 0.092
VFLSRVFNSF | -0.317 ± 0.79
VFNILFSM | 9.098 ± 0.06
VFNLL | inactive
VFPMVFTKGNANVCHI | 0.886 ± 0.58
VFRFNFLRGLKIQVLSRFGW | -0.067 ± 1.1
VFVSCYYAYLLRDTTNFYVG | inactive
VFVSWILFTVSPFIIRYRVN | -1.72 ± 0.75
VFWGM | -1.35 ± 0.49
VFWLNGWYCYI | 3.65 ± 0.056
VFYTFMTSALGIRVTRSSCL | 1.12 ± 0.22
VFYVCFKLQIIDGMLNWCKG | 7.237 ± 0.032
VGDVKVWTVRSSTNATEKFL | 0.551 ± 0.27
VGEYLCEPATLY | -0.018 ± 1.1
VGFGVFVV | 0.213 ± 0.24

Substance | amyloid nucleation score
VGFHEDNMEVR | inactive
VGHQVDCHTSVRYYILYAFF | 7.839 ± 0.063
VGICFDNRMVTWHLSDRQSP | 3.58 ± 0.072
VGKRNLISMVGYPYD | -1.09 ± 0.39
VGLFNVTLAFVLYGSSRLVL | 4.12 ± 0.057
VGNLRGYVKLVISFSVLRHK | inactive
VGPMEGGYPGVAQLLGEKRN | 2.3 ± 0.2
VGSGRLTWT | 0.917 ± 0.28
VGSSEAFCYGLTDFKRENLA | inactive
VGTSWLFLMV | inactive
VGTTNQYDEPTTGLSHC | 0.953 ± 0.32
VGWKTGDRPSEMSSSWDLNG | -0.093 ± 0.37
VGYFLSPMTVQLN | inactive
VGYIMYIYDGYRVVFVGYYR | 0.217 ± 0.65
VHCSVGNINKDVSCTVVRP | 0.892 ± 0.47
VHICRTNDG | 0.632 ± 0.44
VHIMEDVMRRFCDRCTCRTW | 0.562 ± 0.44
VHIYQTPPLKCIWSMDKTPA | -0.442 ± 1
VHLNTFATFMGWLTDSWLGV | inactive
VHLTGSCHPNYSGVGKCMVI | 0.168 ± 0.49
VHPGMNLDMSNACSAFVRTW | -0.631 ± 1
VHQYDSVSAVHADCMG | -1.27 ± 0.53
VHRLRMGRVWFDKDSDVVGK | 0.148 ± 1
VHRWSDTYTTTYM | -0.535 ± 0.33
VHSNCSLNGPCMPMCVRRRW | 0.302 ± 0.56

Substance | amyloid nucleation score
VHTARLTWDLGYSVRCYYWT | 6.47 ± 0.074
VICVLSYADCSKLGWGHSLT | 8.868 ± 0.043
VIGRCDSL | inactive
VIIFFFVFRCMPDLIQVYCV | -1.72 ± 1
VILYGFNKVMECSTYVVV | -0.804 ± 1.1
VIMGFFGITFGWCKRSEVHE | 2.49 ± 0.11
VINRMCIVWPYMSSYWEWNV | 9.126 ± 0.06
VIPKHESISILFPAVYPPFE | 0.031 ± 0.23
VIPSSILLEGYVLLYACYLP | -0.217 ± 0.44
VIRYINSEDFRTGREFTRGV | -1.68 ± 0.78
VISSLSISCYDHSVYVKAVK | 0.445 ± 0.33
VISSRGALCRRAKQ | 0.409 ± 0.53
VIVWFWRFQNMNVAREFMAE | -0.297 ± 0.37
VKAWYWLKARFVLWTVGARL | -0.093 ± 0.79
VKFNDFTHKNWY | 0.058 ± 0.74
VKGHKRESSWNWRSDGNMWA | -0.111 ± 0.61
VKHIGGISARVYKNCAASAV | -0.74 ± 0.63
VKIWDHKCSLRGYWVKWMIG | 1.45 ± 0.3
VKLEMD | -0.617 ± 0.21
VKLHSVSYLIFLL | 4.8 ± 0.11
VKMLSLKSIHLSYFCECASW | 0.28 ± 0.21
VKNWVISCGGILNDARRLFD | -0.78 ± 1.1
VKQYYGSESNNGITFILRIA | 0.177 ± 0.38
VKSLLRDLCGPGCMLYMIVH | -0.11 ± 0.53
VKTRTFRTCRSHRIEFMDWV | -0.064 ± 1.1

Substance | amyloid nucleation score
VKTRVQPRTGDLSATLLGLE | 0.828 ± 0.48
VKVGEISCFNFKEYTFLLTD | inactive
VKYVIIEHFNWSVSCCAYLR | 1.37 ± 0.23
VLCEQHGTGKHSISAEKGHR | 1.44 ± 0.41
VLFSRTTSEEDKRSIISMNN | 2.17 ± 0.18
VLGGLCSVFGDDGTAYYSSS | 0.417 ± 0.36
VLGVLR | inactive
VLIFRAMIFDDKALVGMKD | -0.521 ± 0.45
VLILNQE | inactive
VLMDASTSVYTRSLMWKYMR | -0.162 ± 0.76
VLNIFVT | 7.248 ± 0.061
VLPLFNGIARHPCWNLCMPM | -1.27 ± 0.62
VLPLGHWMAFMTREVCGADM | 0.514 ± 0.17
VLRHLD | 0.44 ± 0.54
VLRMRGCW | 6.738 ± 0.049
VLRTPIIHTMGTGQV | 0.297 ± 0.56
VLSMVVDKCLCTMCIQAIVL | 9.711 ± 0.058
VLSTWWVSYAGTVFVRSEGT | 3.58 ± 0.14
VLVKSLMRENVPCPPLGTLS | 0.942 ± 0.36
VLVMLGGNSARVSCNWVM | 7.457 ± 0.031
VLWLADLSR | 0.113 ± 0.8
VLYVGWFRAKDNIVFLTYGC | -0.158 ± 0.61
